Biological target: T1, GST-ubiquitin (human, UniProt P0CG48 1-76)
T1 construct: ubiquitin, the cut product of the polyubiquitin precursor; also called GST-tagged ubiquitin; source: purified
Test: pull-down; GST-ubiquitin (3 μg) on glutathione-sepharose beads, FLAG-Spartan (1 μg) in solution; 4 h at 4°C, buffer I (40 mM Tris HCl pH 7.5, 85 mM NaCl, 0.1 mM DTT, 10% glycerol, 0.01% NP40); immunoblot with anti-FLAG and anti-GST
Details: both partners purified

binding result: binds
B1: FLAG-Spartan PIP mutant YF331,332AA (natural protein, human, UniProt Q9H040 1-489, looked up)
chain: MDDDLMLALRLQEEWNLQEAERDHAQESLSLVDASWELVDPTPDLQALFVQFNDQFFWGQLEAVEVKWSVRMTLCAGICSYEGKGGMCSIRLSEPLLKLRPRKDLVETLLHEMIHAYLFVTNNDKDREGHGPEFCKHMHRINSLTGANITVYHTFHDEVDEYRRHWWRCNGPCQHRPPYYGYVKRATNREPSAHDYWWAEHQKTCGGTYIKIKEPENYSKKGKGKAKLGKEPVLAAENKDKPNRGEAQLVIPFSGKGYVLGETSNLPSPGKLITSHAINKTQDLLNQNHSANAVRPNSKIKVKFEQNGSSKNSHLVSPAVSNSHQNVLSNAAPRVSFANQKAFRGVNGSPRISVTVGNIPKNSVSSSSQRRVSSSKISLRNSSKVTESASVMPSQDVSGSEDTFPNKRPRLEDKTVFDNFFIKKEQIKSSGNDPKYSTTTAQNSSSSSSQSKMVNCPVCQNEVLESQINEHLDWCLEGDSIKVKSEESL
notes: Spartan/C1orf124, human; cDNA clone bought from ImaGenes; also called PIP mutant Spartan; YF331,332AA Spartan; source: S. cerevisiae BJ5464, purified (glutathione-Sepharose, eluted by PreScission protease); not shown: GST, N-terminal, cleaved; FLAG, N-terminal, kept
